Paper PMC9301641

How the values were obtained:
[1] = biological target: Snof10, yeast surface-displayed; experiment: flow cytometry on cells
[2] = biological target: Snof3, yeast surface-displayed; experiment: flow cytometry on cells
[3] = biological target: SmBiT-Snof10; experiment: split reporter
[4] = biological target: Snof3-LgBiT; experiment: split reporter

B1: Sso6904 (natural protein)
chain: MMAMSILEDPEFVKLRQFKGKVNFNLVMQILDEIELDLRGSDNIKTSIIYVYSSHLDEIRKNKEFYDMIAEILQRYYKKIGIENVNQLILTTIK
How did the Kd [1] turn out when B1 was run?
Its Kd is 28 nM.

What about the Kd [2] of the same binder?
The Kd was 11 nM.

And the Kd [3]?
Its Kd is 20 nM.

What about the Kd [4] of the same binder?
The Kd was 20 nM.
